Substitutions are numbered along the chain they refer to. Read-outs that look alike come from different tables or passages of the source. Blank lines part the entries; values can stand above or below the binder they belong to.
Experiments:
[1] = molecular target: GPIb on human platelets (human) (UniProt P07359); assay: FACS on human platelets
[2] = molecular target: PSGL-1 (residues 42-58) derived peptide, sulfated at 2nd tyrosine position; assay: peptide ELISA, 0.5 µg/well scFv
[3] = molecular target: GPIb (residues 268-285) derived peptide, sulfated at 3rd tyrosine position; assay: peptide ELISA, 0.5 µg/well scFv
[4] = molecular target: CCR5 (residues 1-18) derived peptide, sulfated at 1st tyrosine position; assay: peptide ELISA, 0.5 µg/well scFv
[5] = molecular target: PSGL-1 (residues 42-58) derived peptide, sulfated at 1st tyrosine position; assay: peptide ELISA, 0.5 µg/well scFv
[6] = molecular target: PSGL-1 (residues 42-58) derived peptide, non-sulfated; assay: peptide ELISA, 0.5 µg/well scFv
[7] = molecular target: GPIb (residues 268-285) derived peptide, non-sulfated; assay: peptide ELISA, 0.5 µg/well scFv
[8] = molecular target: CCR5 (residues 1-18) derived peptide, non-sulfated; assay: peptide ELISA, 0.5 µg/well scFv
[9] = molecular target: GPIb (residues 268-285) derived peptide, sulfated at 1st tyrosine position; assay: peptide ELISA, 0.5 µg/well scFv
[10] = molecular target: CCR5 (residues 1-18) derived peptide, sulfated at 3rd tyrosine position; assay: peptide ELISA, 0.5 µg/well scFv
[11] = molecular target: CCR5 (residues 1-18) derived peptide, sulfated at 2nd tyrosine position; assay: peptide ELISA, 0.5 µg/well scFv
[12] = molecular target: PSGL-1 (residues 42-58) derived peptide, sulfated at 3rd tyrosine position; assay: peptide ELISA, 0.5 µg/well scFv
[13] = molecular target: CCR5 (residues 1-18) derived peptide, sulfated at 2nd tyrosine position; assay: peptide ELISA, 0.5 µg/well scFv; remark: listed apart in the source
[14] = molecular target: GPIb (residues 268-285) derived peptide, sulfated at 1st tyrosine position; assay: peptide ELISA, 0.5 µg/well scFv; remark: listed apart in the source
[15] = molecular target: PSGL-1 (residues 42-58) derived peptide, sulfated at 3rd tyrosine position; assay: peptide ELISA, 0.5 µg/well scFv; remark: listed apart in the source
[16] = molecular target: GPIb (residues 268-285) derived peptide, sulfated at 3rd tyrosine position; assay: peptide ELISA, 0.5 µg/well scFv; remark: listed apart in the source

Chain of GPIb on human platelets (human) (P07359 17-652): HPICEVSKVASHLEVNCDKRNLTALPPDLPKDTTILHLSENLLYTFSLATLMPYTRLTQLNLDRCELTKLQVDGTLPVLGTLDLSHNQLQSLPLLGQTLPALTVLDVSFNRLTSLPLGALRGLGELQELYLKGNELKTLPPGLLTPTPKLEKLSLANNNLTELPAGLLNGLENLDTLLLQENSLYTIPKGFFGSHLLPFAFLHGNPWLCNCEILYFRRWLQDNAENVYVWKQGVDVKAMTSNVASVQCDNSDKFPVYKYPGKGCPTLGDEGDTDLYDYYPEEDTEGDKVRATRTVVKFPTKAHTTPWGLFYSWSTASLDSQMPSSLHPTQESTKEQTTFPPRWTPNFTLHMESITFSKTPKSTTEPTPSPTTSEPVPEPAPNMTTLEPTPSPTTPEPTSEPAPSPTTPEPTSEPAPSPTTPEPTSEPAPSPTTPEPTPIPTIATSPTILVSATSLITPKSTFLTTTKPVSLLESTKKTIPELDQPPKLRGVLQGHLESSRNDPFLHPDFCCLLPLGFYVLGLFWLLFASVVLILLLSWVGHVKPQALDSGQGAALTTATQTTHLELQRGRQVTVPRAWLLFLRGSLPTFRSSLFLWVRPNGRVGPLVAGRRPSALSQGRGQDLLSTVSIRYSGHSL

- fold binding capacity relative to Y1 [1]: 25 fold
- ELISA read-out at 450 nm [2]: 0.08 OD 450 nm
- ELISA read-out at 450 nm [3]: 0.15 OD 450 nm
- ELISA read-out at 450 nm [4]: 0.07 OD 450 nm
- ELISA read-out at 450 nm [5]: 0.1 OD 450 nm
- ELISA read-out at 450 nm [6]: 0.07 OD 450 nm
- ELISA read-out at 450 nm [7]: 0.07 OD 450 nm
- ELISA read-out at 450 nm [8]: 0.06 OD 450 nm
- ELISA read-out at 450 nm [9]: 0.8 OD 450 nm
- ELISA read-out at 450 nm [10]: 0.07 OD 450 nm
- ELISA read-out at 450 nm [11]: 0.3 OD 450 nm
- ELISA read-out at 450 nm [12]: 0.8 OD 450 nm
B1: S1 scFv (scFv)
scFv: EVQLVESGGGVVRPGGSLRLSCAASGFTFDLNPKVKHMWVRQAPGKGLEWVSGINWNGGSTGYADSVKGRFTISRDNAKNSLYLQMNSLRAEDTAVYYCARLRPPFLWGQGTLVTVSRGGGGSGGGGSGGGGSSELTQDPAVSVALGQTVRITCQGDSLRSYYASWYQQKPGQAPVLVIYGKNNRPSGIPDRFSGSSSGNTASLTITGAQAEDEADYYCNSRDSSGNHVVFGGGTKLTVLGAAAEQKLISEEDLNGAA

- ELISA read-out at 450 nm [13]: 0.7 OD 450 nm
- ELISA read-out at 450 nm [14]: 0.6 OD 450 nm
- ELISA read-out at 450 nm [15]: 0.7 OD 450 nm
- ELISA read-out at 450 nm [16]: 0.3 OD 450 nm
- ELISA read-out at 450 nm [6]: 0.01 OD 450 nm
- ELISA read-out at 450 nm [7]: 0.1 OD 450 nm
- ELISA read-out at 450 nm [8]: 0.08 OD 450 nm
B2: S11 scFv (scFv)
scFv: B1 scFv with P104Y, L107F

Source: patent US20080274100A1
